Reference: the supplement of paper PMC9233669
Fewer inactive variants are shown than the library holds.

Experiments:
[1] = test system: biotinyl-Met-oxazolone; experiment: self-aminoacylation, catalytic enhancement (BMO) (fold over background); higher = more active; k-Seq, kA / k0A0; sequences stand for … in GGGAAUGGAUCCACAUCUACGAAUUC…UUCACUGCAGACUUGACGAAGCUG
In short: (§1)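 The uncatalyzed rate is the low-activity peak of a bimodal Gaussian fit, and catalytic enhancement is median kA divided by it. The kA values came from pseudo-first-order fits, with 1000 bootstraps, of per-sequence fraction reacted measured by streptavidin capture, triplicate qPCR and Illumina sequencing. Mutagenized RNA pools with a 21-nt variable region (0.43 μM) were reacted with each biotinyl-aminoacyl-oxazolone at 2–1250 μM in 50 μL HEPES/NaCl/KCl/MgCl2/CaCl2 buffer with 5% acetonitrile, pH 6.9–7.0, for 90 minutes at room temperature.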

[2] = test system: biotinyl-Trp-oxazolone; experiment: self-aminoacylation, catalytic enhancement (BWO) (fold over background); higher = more active; k-Seq, kA / k0A0; sequences stand for … in GGGAAUGGAUCCACAUCUACGAAUUC…UUCACUGCAGACUUGACGAAGCUG
In short: as §1

[3] = test system: biotinyl-Phe-oxazolone; experiment: self-aminoacylation, catalytic enhancement (BFO) (fold over background); higher = more active; k-Seq, kA / k0A0; sequences stand for … in GGGAAUGGAUCCACAUCUACGAAUUC…UUCACUGCAGACUUGACGAAGCUG
In short: as §1

[4] = test system: biotinyl-Leu-oxazolone; experiment: self-aminoacylation, catalytic enhancement (BLO) (fold over background); higher = more active; k-Seq, kA / k0A0; sequences stand for … in GGGAAUGGAUCCACAUCUACGAAUUC…UUCACUGCAGACUUGACGAAGCUG
In short: as §1

[5] = test system: biotinyl-Val-oxazolone; experiment: self-aminoacylation, catalytic enhancement (BVO) (fold over background); higher = more active; k-Seq, kA / k0A0; sequences stand for … in GGGAAUGGAUCCACAUCUACGAAUUC…UUCACUGCAGACUUGACGAAGCUG
In short: as §1

[6] = test system: biotinyl-Ile-oxazolone; experiment: self-aminoacylation, catalytic enhancement (BIO) (fold over background); higher = more active; k-Seq, kA / k0A0; sequences stand for … in GGGAAUGGAUCCACAUCUACGAAUUC…UUCACUGCAGACUUGACGAAGCUG
In short: as §1

| Sequence | self-aminoacylation [1] | self-aminoacylation [2] | self-aminoacylation [3] | self-aminoacylation [4] | self-aminoacylation [5] | self-aminoacylation [6] |
| --- | --- | --- | --- | --- | --- | --- |
| CUACUACAAACACUCGGUCUG [Fam1A.1 aminoacylation ribozyme variant] | 0.856 | 0.703 | 0.434 | 0.902 | 1.03 | 1.08 |
| CUACUACAAUCAAUCGGUCUG [Fam1A.1 aminoacylation ribozyme variant] | 0.616 | 0.669 | 0.981 | 0.699 | 0.682 | 0.767 |
| CUACUCCAAACAAUCGCUCUG [Fam1A.1 aminoacylation ribozyme variant] | 0.783 | 0.596 | 1.32 | 0.949 | 0.884 | 1.11 |
| CUACUCCAAACAAUCGGUCUA [Fam1A.1 aminoacylation ribozyme variant] | 0.638 | 1.05 | 2.18 | 0.746 | 0.808 | 0.767 |
| CUACUCCAAACAAUGGGUCUG [Fam1A.1 aminoacylation ribozyme variant] | 0.784 | 0.754 | 0.772 | 0.799 | 0.863 | 0.948 |
| CUACUCCAAACAGUCGGUCUG [Fam1A.1 aminoacylation ribozyme variant] | 0.958 | 0.323 | 3.1 | 1.1 | 1.06 | 0.953 |
| CUACUCCAAACGAUCGGUCUG [Fam1A.1 aminoacylation ribozyme variant] | 0.643 | 0.445 | 0.979 | 0.91 | 0.812 | 0.854 |
| CUACUCCUAACAAUCGGUCUG [Fam1A.1 aminoacylation ribozyme variant] | 0.504 | 0.441 | 0.659 | 0.667 | 0.774 | 0.748 |
| CUACUGCAAACAAUCGCUCUG [Fam1A.1 aminoacylation ribozyme variant] | 0.898 | 0.702 | 3.05 | 1.2 | 1.08 | 1.2 |
| CUACUGCAAACAAUCGGUCUA [Fam1A.1 aminoacylation ribozyme variant] | 0.868 | 0.72 | 0.688 | 0.858 | 0.871 | 0.876 |
| CUACUGGAAACAAUCGGUCUG [Fam1A.1 aminoacylation ribozyme variant] | 0.933 | 0.514 | 0.507 | 0.885 | 0.837 | 0.887 |
| CUACUUAAAACAAUCAGUCUG [Fam1A.1 aminoacylation ribozyme variant] | 0.723 | 0.512 | 0.689 | 0.715 | 0.915 | 0.877 |
| CUACUUAAAACAAUCGGUAUG [Fam1A.1 aminoacylation ribozyme variant] | 0.55 | 0.339 | 0.513 | 0.53 | 0.574 | 0.556 |
| CUACUUAAAACAAUCGGUCAG [Fam1A.1 aminoacylation ribozyme variant] | 0.703 | 0.384 | 0.552 | 0.66 | 0.79 | 0.636 |
| CUACUUAAAACAAUCGGUGUG [Fam1A.1 aminoacylation ribozyme variant] | 0.72 | 1.17 | 0.821 | 0.96 | 0.684 | 0.596 |
| CUACUUAAAACAAUGGGUCUG [Fam1A.1 aminoacylation ribozyme variant] | 1.28 | 0.653 | 0.9 | 1.03 | 1.05 | 1.05 |
| CUACUUAAAUCAAUCGGUCUG [Fam1A.1 aminoacylation ribozyme variant] | 0.702 | 0.691 | 0.911 | 0.793 | 0.91 | 0.887 |
| CUACUUCAAAAAAUCGCUCUG [Fam1A.1 aminoacylation ribozyme variant] | 0.492 | 0.727 | 0.901 | 0.486 | 0.484 | 0.539 |
| CUACUUCAAAAAAUCGGUCUA [Fam1A.1 aminoacylation ribozyme variant] | 0.725 | 2.39 | 4.37 | 0.79 | 0.697 | 0.842 |
| CUACUUCAAAAGAUCGGUCUG [Fam1A.1 aminoacylation ribozyme variant] | 0.728 | 0.938 | 1.08 | 0.859 | 0.724 | 0.973 |
| CUACUUCAAACAAACGGGCUG [Fam1A.1 aminoacylation ribozyme variant] | 0.993 | 0.862 | 1.65 | 0.999 | 0.934 | 1.2 |
| CUACUUCAAACAAACGGUCAG [Fam1A.1 aminoacylation ribozyme variant] | 0.6 | 0.787 | 0.883 | 0.581 | 0.682 | 0.73 |
| CUACUUCAAACAAACUGUCUG [Fam1A.1 aminoacylation ribozyme variant] | 0.562 | 0.5 | 0.742 | 0.547 | 0.717 | 0.684 |
| CUACUUCAAACAACCCGUCUG [Fam1A.1 aminoacylation ribozyme variant] | 0.657 | 0.923 | 0.796 | 0.911 | 1.04 | 0.906 |
| CUACUUCAAACAACCGGUCUC [Fam1A.1 aminoacylation ribozyme variant] | 0.724 | 0.734 | 0.745 | 0.619 | 0.728 | 0.933 |
